Experimental data published in US20230151068A1 (FRED HUTCHINSON CANCER CENTER, published 2023).

Target: T1, TfR (Biotinylated; site and any biotin-acceptor or purification tag are not stated in the passages seen.)
T1 construct: also called biotinylated TfR ectodomain; control protein
Test: flow cytometry, 293F cells displaying YAP (SDGF), co-incubated with biotinylated TfR ectodomain (control protein) and streptavidin-Alexa647

T1 sequence (chain, as listed by the source limits assumed): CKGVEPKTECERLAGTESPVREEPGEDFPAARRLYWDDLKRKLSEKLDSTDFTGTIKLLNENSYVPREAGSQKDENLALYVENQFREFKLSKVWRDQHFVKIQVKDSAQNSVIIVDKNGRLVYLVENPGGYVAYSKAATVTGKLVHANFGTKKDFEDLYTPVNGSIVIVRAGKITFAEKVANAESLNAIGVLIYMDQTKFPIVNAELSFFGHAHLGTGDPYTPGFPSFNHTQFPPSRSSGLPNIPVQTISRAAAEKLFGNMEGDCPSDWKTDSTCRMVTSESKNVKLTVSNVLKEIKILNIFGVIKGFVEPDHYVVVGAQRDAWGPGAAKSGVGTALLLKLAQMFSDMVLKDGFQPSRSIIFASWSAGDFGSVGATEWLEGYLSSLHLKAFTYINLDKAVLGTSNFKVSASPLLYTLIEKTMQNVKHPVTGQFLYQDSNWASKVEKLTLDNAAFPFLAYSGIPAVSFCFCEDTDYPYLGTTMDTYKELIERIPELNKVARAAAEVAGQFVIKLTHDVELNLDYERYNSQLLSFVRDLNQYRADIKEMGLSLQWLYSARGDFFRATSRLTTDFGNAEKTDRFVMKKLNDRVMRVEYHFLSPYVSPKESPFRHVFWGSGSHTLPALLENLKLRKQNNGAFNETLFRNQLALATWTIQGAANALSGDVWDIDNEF

B1: SDGF-YAP (50-171), surface-tethered on HEK-293 cells (other, UniProt P46937 50-171, looked up)
chain: AGHQIVHVRGDSETDLEALFNAVMNPKTANVPQTVPMRLRKLPDSFFKPPEPKSHSRQASTDAGTAGALTPQHVRAHSSPASLQLGAVSPGTLTPTGVVSGPAATPTAQHLRQSSFEIPDDV
binding result: no binding (tested: not shown on the sheet)
